Measurements: article PMC5250619

Legend:
Assay in all cases: BLI
[1] = biological target: CAP256-VRC26.01 Fab (human)
[2] = biological target: CAP256-VRC26.10 Fab (human)
[3] = biological target: CAP256-VRC26.03 Fab (human)

BG505.SOSIP.664 soluble HIV-1 Env trimer (from UniProt Q2N0S6 1-860) (complex)
Kd [1]: 680 nM
koff [1]: 0.0071 s⁻¹
Kd [2]: 84 nM
koff [2]: 0.0045 s⁻¹
kon [2]: 54000 M⁻¹ s⁻¹
Kd [3]: 64 nM
koff [3]: 0.0041 s⁻¹
kon [3]: 63000 M⁻¹ s⁻¹
